Laboratory results taken from US20120207760A1.

Tests used:
[1] = target: recombinant homotrimeric HA, A/Anhui/1/05 H5N1 (Influenza A virus A/Anhui/1/05 (H5N1)); assay: trimeric HA microarray, transfection set 3
[2] = target: recombinant homotrimeric HA, A/Hong Kong/1073/99 H9N2 (Influenza A virus A/Hong Kong/1073/99 (H9N2)); assay: trimeric HA microarray, transfection set 3
[3] = target: recombinant homotrimeric HA, A/Hong Kong/2108/03 H9N2 (Influenza A virus A/Hong Kong/2108/03 (H9N2)); assay: trimeric HA microarray, transfection set 3
[4] = target: recombinant homotrimeric HA, A/Indonesia/5/05 H5N1 (Influenza A virus A/Indonesia/5/05 (H5N1)); assay: trimeric HA microarray, transfection set 3
[5] = target: recombinant homotrimeric HA, A/Japan/305/57 H2N2 (Influenza A virus A/Japan/305/57 (H2N2)); assay: trimeric HA microarray, transfection set 3
[6] = target: recombinant homotrimeric HA, A/Netherlands/219/03 H7N7 (Influenza A virus A/Netherlands/219/03 (H7N7)); assay: trimeric HA microarray, transfection set 3
[7] = target: recombinant homotrimeric HA, A/Wisconsin/67/05 H3N2 (Influenza A virus A/Wisconsin/67/05 (H3N2)); assay: trimeric HA microarray, transfection set 3
[8] = target: recombinant homotrimeric HA, A/chicken/Vietnam/NCVD-016/08 H5N1 (Influenza A virus A/chicken/Vietnam/NCVD-016/08 (H5N1)); assay: trimeric HA microarray, transfection set 3
[9] = target: recombinant homotrimeric HA, A/duck/Yangzhou/02/05 H8N4 (Influenza A virus A/duck/Yangzhou/02/2005 (H8N4)); assay: trimeric HA microarray, transfection set 3
[10] = target: recombinant homotrimeric HA, A/northern shoveler/California/HKWF115/07 (Influenza A virus A/northern shoveler/California/HKWF115/2007 (H6N1)); assay: trimeric HA microarray, transfection set 3
[11] = target: recombinant homotrimeric HA, A/swine/Ontario/01911-2/99 H4N6 (Influenza A virus A/swine/Ontario/01911-2/99 (H4N6)); assay: trimeric HA microarray, transfection set 3
[12] = target: recombinant homotrimeric HA, A/California/4/09 H1N1 (Influenza A virus A/California/4/09 (H1N1)); assay: trimeric HA microarray, transfection set 4
[13] = target: recombinant homotrimeric HA, A/Indonesia/5/05 H5N1 (Influenza A virus A/Indonesia/5/05 (H5N1)); assay: trimeric HA microarray, transfection set 4
[14] = target: recombinant homotrimeric HA, A/Japan/305/57 H2N2 (Influenza A virus A/Japan/305/57 (H2N2)); assay: trimeric HA microarray, transfection set 4
[15] = target: recombinant homotrimeric HA, A/Solomon Islands/3/06 H1N1 (Influenza A virus A/Solomon Islands/3/06 (H1N1)); assay: trimeric HA microarray, transfection set 4
[16] = target: recombinant homotrimeric HA, A/South Carolina/1/18 H1N1 (Influenza A virus A/South Carolina/1/18 (H1N1)); assay: trimeric HA microarray, transfection set 4
[17] = target: recombinant homotrimeric HA, A/Vietnam/1203/04 H5N1 (Influenza A virus A/Vietnam/1203/04 (H5N1)); assay: trimeric HA microarray, transfection set 4
[18] = target: recombinant homotrimeric HA, A/Wisconsin/67/05 H3N2 (Influenza A virus A/Wisconsin/67/05 (H3N2)); assay: trimeric HA microarray, transfection set 4
[19] = target: recombinant homotrimeric HA, A/swine/Ontario/01911-2/99 H4N6 (Influenza A virus A/swine/Ontario/01911-2/99 (H4N6)); assay: trimeric HA microarray, transfection set 4
[20] = target: hemagglutinin (HA) of influenza A/Solomon Islands/3/06 H1N1 (Influenza A virus A/Solomon Islands/3/2006 (H1N1)); assay: ELISA, inactivated whole virions coated; transfection supernatant set 2
[21] = target: hemagglutinin (HA) of influenza A/Wisconsin/67/05 H3N2 (Influenza A virus A/Wisconsin/67/2005 (H3N2)); assay: as above
[22] = target: hemagglutinin (HA) of influenza A/Japan/305/57 H2N2 (Influenza A virus A/Japan/305/1957 (H2N2)) (UniProt P03451); assay: ELISA, inactivated whole virions coated; transfection supernatant set 4
[23] = target: hemagglutinin (HA) of influenza A/Solomon Islands/3/06 H1N1 (Influenza A virus A/Solomon Islands/3/2006 (H1N1)); assay: as above
[24] = target: hemagglutinin (HA) of influenza A/Wisconsin/67/05 H3N2 (Influenza A virus A/Wisconsin/67/2005 (H3N2)); assay: as above

Substance: TCN-202 (2N9) (antibody)
- Trimeric HA Binding RLU [1]: 33 RLU
- Trimeric HA Binding RLU [2]: 57 RLU
- Trimeric HA Binding RLU [3]: 30 RLU
- Trimeric HA Binding RLU [4]: 43 RLU
- Trimeric HA Binding RLU [5]: 42 RLU
- Trimeric HA Binding RLU [6]: 247 RLU
- Trimeric HA Binding RLU [7]: 51 RLU
- Trimeric HA Binding RLU [8]: 14 RLU
- Trimeric HA Binding RLU [9]: 66 RLU
- Trimeric HA Binding RLU [10]: 73 RLU
- Trimeric HA Binding RLU [11]: 54 RLU
- Trimeric HA Binding RLU [12]: 94 RLU
- Trimeric HA Binding RLU [13]: 19 RLU
- Trimeric HA Binding RLU [14]: 334 RLU
- Trimeric HA Binding RLU [15]: 34 RLU
- Trimeric HA Binding RLU [16]: 27 RLU
- Trimeric HA Binding RLU [17]: 67 RLU
- Trimeric HA Binding RLU [18]: 125 RLU
- Trimeric HA Binding RLU [19]: 157 RLU
- OD450 [20]: 0.08 OD450
- OD450 [21]: 0.07 OD450
- OD450 [22]: 0.08 OD450
- OD450 [23]: 0.1 OD450
- OD450 [24]: 0.07 OD450
